Consider one substance from patent US20250263481A1.

The experiment addresses human CLDN18.2 expressed on cells (human). Nature of the experiment: cell-based or functional assay.

In the case of Human IgG1 isotype antibody, the ADCC on KATOIII CLDN18.2 cells, LDH: max (% cytotoxity) (run A) was determined as 0.3%; the ADCC on KATOIII CLDN18.2 cells, LDH: max (% cytotoxity) (run B) was -5.51%; the ADCC on KATOIII CLDN18.2 cells, LDH: max (% cytotoxity) (run C) was -7.64%; the ADCC on NCI-N87 CLDN18.2 cells, LDH: max (% cytotoxity) (run A) is -6.73%. For the same substance, the ADCC on NCI-N87 CLDN18.2 cells, LDH: max (% cytotoxity) (run B) was -11.7%; the ADCC on NCI-N87 CLDN18.2 cells, LDH: max (% cytotoxity) (run C) is -9.22%; the ADCC, FACS: Max (%) was determined as 8.3%; the ADCC, LDH: Max (%) was found to be 1.5%. For the same substance, the CDC on CT26 CLDN18.2 cells, LDH: max (% cytotoxity) (run A) came to 10.8%; the CDC on CT26 CLDN18.2 cells, LDH: max (% cytotoxity) (run B) is -0.23%; the CDC on CT26 CLDN18.2 cells, LDH: max (% cytotoxity) (run C) was -0.38%; the CDC on KATOIII CLDN18.2 cells, LDH: max (% cytotoxity) (run A) is -0.85%. Further, the CDC on KATOIII CLDN18.2 cells, LDH: max (% cytotoxity) (run B) is -2.46% and the CDC on KATOIII CLDN18.2 cells, LDH: max (% cytotoxity) (run C) was -1.53%.
